The target of the test is human CD19 on KILR Raji cells (UniProt P15391). The experiment in a line: cell-based or functional assay.
Chain of human CD19 on KILR Raji cells (P15391 20-556 limits assumed): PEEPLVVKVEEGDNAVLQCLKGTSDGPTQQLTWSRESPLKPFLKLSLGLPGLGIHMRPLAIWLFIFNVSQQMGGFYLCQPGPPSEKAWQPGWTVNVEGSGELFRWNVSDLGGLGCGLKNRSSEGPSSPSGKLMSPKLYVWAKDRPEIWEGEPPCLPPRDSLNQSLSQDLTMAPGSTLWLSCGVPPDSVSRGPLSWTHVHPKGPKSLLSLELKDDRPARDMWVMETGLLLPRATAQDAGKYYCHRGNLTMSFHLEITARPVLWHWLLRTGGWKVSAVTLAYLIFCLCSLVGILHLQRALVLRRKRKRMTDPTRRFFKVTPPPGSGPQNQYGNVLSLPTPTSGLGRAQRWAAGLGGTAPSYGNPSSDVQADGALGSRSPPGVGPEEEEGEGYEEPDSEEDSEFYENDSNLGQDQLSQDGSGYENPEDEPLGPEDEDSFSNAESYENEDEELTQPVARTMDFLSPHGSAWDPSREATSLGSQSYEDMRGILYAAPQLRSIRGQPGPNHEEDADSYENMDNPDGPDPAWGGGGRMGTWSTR

The substance blinatumomab (bispecific antibody) gave an EC50 (pg/mL) of T cell-redirected killing of KILR Raji cells, +HSA of 10800 pg/mL and an EC50 (pg/mL) of T cell-redirected killing of KILR Raji cells, -HSA of 2850 pg/mL.
